Laboratory results from the Immune Epitope Database (IEDB).

Tests used:
HLA-A*31:01 = experiment: IEDB peptide-MHC binding, purified MHC/competitive/radioactivity; filed as Kd, often an IC50 or EC50 that approximates it; ≥ and ≤ were set here for values at or beyond the usual limits of such assays; conditions: source organism: Dengue virus 3 Martinique/1243/1999
HLA-B*58:01 [1] = experiment: as above
HLA-B*15:01 = experiment: IEDB peptide-MHC binding, purified MHC/competitive/fluorescence; filed as Kd, often an IC50 or EC50 that approximates it; ≥ and ≤ were set here for values at or beyond the usual limits of such assays
HLA-B*40:01 = experiment: as above
HLA-A*02:01 [2] = experiment: IEDB peptide-MHC binding, purified MHC/competitive/radioactivity; ≥ and ≤ were set here for values at or beyond the usual limits of such assays
HLA-A*32:01 = experiment: IEDB peptide-MHC binding, purified MHC/competitive/radioactivity; filed as Kd, often an IC50 or EC50 that approximates it; ≥ and ≤ were set here for values at or beyond the usual limits of such assays
HLA-B*57:01 [3] = experiment: as above
HLA-B*07:02 [4] = experiment: IEDB peptide-MHC binding, purified MHC/competitive/fluorescence; ≥ and ≤ were set here for values at or beyond the usual limits of such assays
HLA-A*01:01 [5] = experiment: IEDB peptide-MHC binding, purified MHC/direct/fluorescence; filed as Kd, often an IC50 or EC50 that approximates it; ≥ and ≤ were set here for values at or beyond the usual limits of such assays; conditions: source organism: Reston ebolavirus - Reston
HLA-C*05:01 = experiment: as above
HLA-A*02:01 [6] = experiment: IEDB peptide-MHC binding, purified MHC/competitive/fluorescence; filed as Kd, often an IC50 or EC50 that approximates it; ≥ and ≤ were set here for values at or beyond the usual limits of such assays
HLA-A*26:01 [7] = experiment: as above
HLA-B*15:17 = experiment: as above
HLA-B*18:01 = experiment: as above
HLA-B*27:03 = experiment: as above
HLA-B*39:01 = experiment: as above
HLA-B*46:01 = experiment: as above
HLA-B*51:01 = experiment: as above
HLA-B*57:01 [8] = experiment: as above
HLA-A*24:03 [9] = experiment: as above
HLA-A*01:01 [10] = experiment: IEDB peptide-MHC binding, purified MHC/competitive/radioactivity; filed as Kd, often an IC50 or EC50 that approximates it; ≥ and ≤ were set here for values at or beyond the usual limits of such assays; conditions: source organism: Dengue virus 2 Jamaica/1409/1983
HLA-A*26:01 [11] = experiment: as above; conditions: source organism: Dengue virus 2 Jamaica/1409/1983
HLA-A*30:02 = experiment: as above; conditions: source organism: Dengue virus 2 Jamaica/1409/1983
HLA-A*03:01 [12] = experiment: IEDB peptide-MHC binding, purified MHC/competitive/fluorescence; ≥ and ≤ were set here for values at or beyond the usual limits of such assays
HLA-A*24:02 = experiment: as above; conditions: source organism: Vaccinia virus Copenhagen
HLA-B*07:02 [13] = experiment: IEDB peptide-MHC binding, purified MHC/competitive/fluorescence; filed as Kd, often an IC50 or EC50 that approximates it; ≥ and ≤ were set here for values at or beyond the usual limits of such assays
HLA-A*11:01 = experiment: IEDB peptide-MHC binding, purified MHC/competitive/fluorescence; ≥ and ≤ were set here for values at or beyond the usual limits of such assays; conditions: source organism: Vaccinia virus
HLA-A*23:01 = experiment: IEDB peptide-MHC binding, purified MHC/direct/fluorescence; filed as Kd, often an IC50 or EC50 that approximates it; ≥ and ≤ were set here for values at or beyond the usual limits of such assays
HLA-A*24:03 [14] = experiment: as above
HLA-B*58:01 [15] = experiment: IEDB peptide-MHC binding, purified MHC/competitive/fluorescence; filed as Kd, often an IC50 or EC50 that approximates it; ≥ and ≤ were set here for values at or beyond the usual limits of such assays; conditions: source organism: Escherichia coli
HLA-A*02:03 = experiment: IEDB peptide-MHC binding, purified MHC/direct/fluorescence; filed as Kd, often an IC50 or EC50 that approximates it; ≥ and ≤ were set here for values at or beyond the usual limits of such assays; conditions: source organism: Influenza A virus (A/England/654/2007(H1N1))
HLA-A*02:11 = experiment: as above; conditions: source organism: Influenza A virus (A/England/654/2007(H1N1))
HLA-A*02:12 = experiment: as above; conditions: source organism: Influenza A virus (A/England/654/2007(H1N1))
HLA-A*02:16 = experiment: as above; conditions: source organism: Influenza A virus (A/England/654/2007(H1N1))
HLA-A*02:19 = experiment: as above; conditions: source organism: Influenza A virus (A/England/654/2007(H1N1))
HLA-A*03:01 [16] = experiment: as above; conditions: source organism: Influenza A virus (A/England/654/2007(H1N1))
HLA-A*29:02 = experiment: as above; conditions: source organism: Influenza A virus (A/England/654/2007(H1N1))
HLA-A*68:02 = experiment: as above; conditions: source organism: Influenza A virus (A/England/654/2007(H1N1))
HLA-A*01:01 [17] = experiment: IEDB peptide-MHC binding, purified MHC/competitive/fluorescence; filed as Kd, often an IC50 or EC50 that approximates it; ≥ and ≤ were set here for values at or beyond the usual limits of such assays; conditions: source organism: Influenza A virus (A/Yokohama/22/2002(H1N2))
HLA-A*69:01 = experiment: as above; conditions: source organism: Influenza A virus (A/Yokohama/22/2002(H1N2))
[18] = source organism: Dengue virus 3 Martinique/1243/1999
[19] = source organism: Salmonella enterica subsp. enterica serovar Typhi
[20] = source organism: Zaire ebolavirus
[21] = source organism: Reston ebolavirus - Reston (1989)
[22] = source organism: Dengue virus 2 Jamaica/1409/1983
[23] = source organism: Vaccinia virus Copenhagen
[24] = source organism: Dengue virus 1 Brazil/97-11/1997
[25] = source organism: Dengue virus 1 Singapore/S275/1990
[26] = source organism: Vaccinia virus
[27] = source organism: Vibrio vulnificus CMCP6
[28] = source organism: Burkholderia mallei ATCC 23344
[29] = source organism: Escherichia coli
[30] = source organism: Human papillomavirus 16
[31] = source organism: Influenza A virus (A/England/654/2007(H1N1))
[32] = source organism: Influenza A virus (A/Yokohama/22/2002(H1N2))

Sequence: AASAAQRRGR
- Kd (HLA-A*31:01): 0.165 µM
- Kd (HLA-B*58:01 [1]; [18]): 0.0187 µM

Sequence: AELFVAHYM
- Kd (HLA-B*15:01; [19]): ≥ 20 µM
- Kd (HLA-B*40:01; [19]): 0.0108 µM

Sequence: AIMEKNIML
- IC50 (HLA-A*02:01 [2]; source organism: Influenza A virus (A/Alaska/6/1977(H3N2))): 0.104 µM

Sequence: ATLLVWHTW
- Kd (HLA-A*32:01; [18]): 0.00268 µM
- Kd (HLA-B*57:01 [3]; [18]): 0.0021 µM
- Kd (HLA-B*58:01 [1]; [18]): 0.00169 µM

Sequence: EPVVFSTSD
- IC50 (HLA-B*07:02 [4]; [20]): ≥ 144 µM

Sequence: FSDLCNFLI
- Kd (HLA-A*01:01 [5]): 0.153 µM
- Kd (HLA-C*05:01; [21]): 0.009 µM
- Kd (HLA-A*02:01 [6]; [21]): ≥ 20 µM
- Kd (HLA-A*26:01 [7]; [21]): ≥ 20 µM
- Kd (HLA-B*15:01; [21]): ≥ 20 µM
- Kd (HLA-B*15:17; [21]): ≥ 20 µM
- Kd (HLA-B*18:01; [21]): ≥ 20 µM
- Kd (HLA-B*27:03; [21]): ≥ 20 µM
- Kd (HLA-B*39:01; [21]): ≥ 20 µM
- Kd (HLA-B*46:01; [21]): ≥ 20 µM
- Kd (HLA-B*51:01; [21]): ≥ 20 µM
- Kd (HLA-B*57:01 [8]; [21]): ≥ 20 µM

Sequence: HYGTEGQEF
- Kd (HLA-A*24:03 [9]; source organism: Escherichia coli APEC O1): 0.0029 µM

Sequence: IPSATKRWG
- IC50 (HLA-B*07:02 [4]; source organism: Sudan ebolavirus): 49.6 µM

Sequence: ITASILLWY
- Kd (HLA-A*01:01 [10]): 0.0472 µM
- Kd (HLA-A*26:01 [11]): 0.00566 µM
- Kd (HLA-A*30:02): 0.55 µM
- Kd (HLA-B*58:01 [1]; [22]): 0.0028 µM

Sequence: IVFYRSGTE
- IC50 (HLA-A*03:01 [12]; [23]): ≥ 85.9 µM
- IC50 (HLA-A*24:02): ≥ 6580 µM
- IC50 (HLA-B*07:02 [4]; [23]): ≥ 223 µM

Sequence: KSWPLNEGI
- Kd (HLA-A*32:01; [24]): 0.34 µM
- Kd (HLA-B*58:01 [1]; [24]): 0.0703 µM

Sequence: KTVWFVPSI
- Kd (HLA-A*32:01; [22]): 0.00669 µM
- Kd (HLA-B*58:01 [1]; [22]): 0.00432 µM

Sequence: LESAIGLPM
- Kd (HLA-B*40:01; source organism: Shigella flexneri 5 str. 8401): 0.0072 µM

Sequence: LKNDLLENLQ
- IC50 (HLA-B*07:02 [4]; source organism: Influenza A virus (A/Victoria/1968(H3N2))): ≥ 495 µM

Sequence: LLALLSCLTI
- IC50 (HLA-A*02:01 [2]; source organism: Hepacivirus hominis): 0.385 µM

Sequence: LPYPYSSSA
- Kd (HLA-B*07:02 [13]; source organism: Shigella boydii CDC 3083-94): 0.0796 µM

Sequence: LSAAIGKAW
- Kd (HLA-B*57:01 [3]; [25]): 0.0019 µM
- Kd (HLA-B*58:01 [1]; [25]): 0.00292 µM

Sequence: LVRSETKQK
- IC50 (HLA-A*03:01 [12]; [26]): 5.02 µM
- IC50 (HLA-A*11:01): 7.02 µM
- IC50 (HLA-B*07:02 [4]; [26]): 34.6 µM

Sequence: MEIKILHKQ
- Kd (HLA-B*40:01; source organism: Escherichia coli 536): ≥ 20 µM

Sequence: MENLMYALL
- Kd (HLA-B*40:01; source organism: Bacillus anthracis str. A0488): 0.0284 µM

Sequence: MFVSNRWFL
- Kd (HLA-A*23:01; [27]): 0.002 µM
- Kd (HLA-A*24:03 [14]; [27]): 0.005 µM

Sequence: NASDRMGMGV
- Kd (HLA-B*57:01 [3]; [18]): 0.722 µM
- Kd (HLA-B*58:01 [1]; [18]): 0.209 µM

Sequence: NLGNLNVSI
- IC50 (HLA-A*02:01 [2]; source organism: Hepatitis B virus subtype ayw): 0.076 µM

Sequence: NPIVPSFDM
- IC50 (HLA-B*07:02 [4]; source organism: Influenza A virus (A/Oklahoma/309/2006(H3N2))): 1.23 µM

Sequence: PFFFGFSHF
- Kd (HLA-A*23:01; [28]): 0.024 µM
- Kd (HLA-A*24:03 [14]; [28]): 0.704 µM

Sequence: PSGSTSPRM
- IC50 (HLA-B*07:02 [4]; [20]): ≥ 202 µM

Sequence: QSSITEAELT
- Kd (HLA-B*57:01 [3]; [22]): 0.351 µM
- Kd (HLA-B*58:01 [1]; [22]): 0.436 µM

Sequence: QYVLMPGKV
- Kd (HLA-A*24:03 [9]; [29]): 2.58 µM

Sequence: RAMACSALI
- Kd (HLA-C*05:01; [29]): 0.347 µM
- Kd (HLA-A*02:01 [6]; [29]): 0.0261 µM
- Kd (HLA-B*51:01; [29]): 2.97 µM
- Kd (HLA-B*58:01 [15]): 0.0129 µM

Sequence: RAQDPPPEL
- Kd (HLA-C*05:01; source organism: Homo sapiens): 0.663 µM

Sequence: SLYNAIATL
- IC50 (HLA-A*02:01 [2]; source organism: Human immunodeficiency virus 1): 0.036 µM

Sequence: TLIDVCPI
- IC50 (HLA-A*02:01 [2]; [30]): 0.033 µM

Sequence: TVILGVLLL
- IC50 (HLA-A*02:01 [2]; source organism: Homo sapiens): 0.847 µM

Sequence: VLLLWITAA
- IC50 (HLA-A*02:01 [2]; [30]): 0.011 µM

Sequence: VLPSPACQLV
- IC50 (HLA-A*02:01 [2]; source organism: Homo sapiens): 0.5 µM

Sequence: VPRYAFAM
- Kd (HLA-B*07:02 [13]; source organism: Influenza A virus): ≤ 0.001 µM

Sequence: VSSVNMISRM
- Kd (HLA-B*57:01 [3]; [22]): 0.626 µM
- Kd (HLA-B*58:01 [1]; [22]): 0.698 µM

Sequence: WTGMVDGWY
- Kd (HLA-A*02:03): ≥ 20 µM
- Kd (HLA-A*02:11): ≥ 20 µM
- Kd (HLA-A*02:12): ≥ 20 µM
- Kd (HLA-A*02:16): ≥ 20 µM
- Kd (HLA-A*02:19): ≥ 20 µM
- Kd (HLA-A*03:01 [16]): ≥ 20 µM
- Kd (HLA-A*23:01; [31]): ≥ 20 µM
- Kd (HLA-A*24:03 [14]; [31]): ≥ 20 µM
- Kd (HLA-A*29:02): ≥ 20 µM
- Kd (HLA-A*68:02): ≥ 20 µM
- Kd (HLA-A*01:01 [17]): 0.0103 µM
- Kd (HLA-A*02:01 [6]; [32]): ≥ 20 µM
- Kd (HLA-A*26:01 [7]; [32]): ≥ 20 µM
- Kd (HLA-A*69:01): ≥ 20 µM
- Kd (HLA-B*15:01; [32]): ≥ 20 µM
- Kd (HLA-B*15:17; [32]): ≥ 20 µM
- Kd (HLA-B*18:01; [32]): ≥ 20 µM
- Kd (HLA-B*27:03; [32]): ≥ 20 µM
- Kd (HLA-B*39:01; [32]): ≥ 20 µM
- Kd (HLA-B*46:01; [32]): ≥ 20 µM
- Kd (HLA-B*51:01; [32]): ≥ 20 µM
- Kd (HLA-B*57:01 [8]; [32]): ≥ 20 µM
